Measured values: article PMC6530877 (PLoS Pathogens, 2019)

Legend:
Experiment in all cases: ELISA; Fab fragments (IGH526, HCV1) coated ~2 μg per well; purified E1E2-DHD15 or E1E2-Fc serially diluted in 25 mM Tris, 150 mM NaCl, pH 7.4, 0.05% Tween-20, 1% BSA; detection by anti-FLAG M2 and/or HRP anti-mouse IgG
Conditions in all cases: both partners purified
[1] = target: T1, E1E2-Fc oligomer (oligomeric SEC fraction of Fc-tagged HCV E1E2), expressed in HEK293 cells (hepatitis C virus genotype 1b, Con1, UniProt Q9WMX2)
T1 construct: also called E1E2 oligomer; oligomeric E1E2; source: HEK293F, transient (pMlink), secreted, purified (oligomer peak of the SEC)

[2] = target: T2, E1E2-DHD15 heterodimer (HCV E1 and E2 ectodomains with the de novo designed heterodimeric tag DHD15), … (hepatitis C virus genotype 1b, Con1, UniProt Q9WMX2)
T2 construct: source: HEK293F, transient (pMlink), secreted, purified

[3] = target: T3, E1E2-Fc heterodimer (HCV E1 and E2 ectodomains, Fc-tagged), mammalian cell expressed (hepatitis C virus genotype 1b, Con1, UniProt Q9WMX2)
T3 construct: source: HEK293F, transient (pMlink), secreted, purified

[4] = target: T4, E1E2-DHD15 heterodimer (HCV E1 and E2 ectodomains with the de novo designed heterodimeric tag DHD15), insect … (hepatitis C virus genotype 1b, Con1, UniProt Q9WMX2)
T4 construct: source: High-5 insect cells (baculovirus), secreted, purified (Ni-NTA, Flag M2, SEC)

Measured: binding result

B1: Fab fragment of neutralizing antibody HCV1 (Fab, V domains shown)
VH: EVQLLESGGGVVQPGRSLRLSCTASGFTFNNYGMHWVRQTPGKGLEWLAVIWFDENNKYYADSVRGRFTISRDNSKNTLFLQMNSLKTEDTAMYYCARDISLVRDAFIYFDFWGLGTLVTVSS
VL: ELTLTQSPATLSLSPGERATLSCRASQSVSSYLAWYQQKPGQAPRLLIYDASNRATGIPARFSGSGSGTDFTLTISSLEPEDFAVYYCQQRSNWITFGQGTRLEIK
notes: source: HEK293F, transient (pMlink), purified
binds: all assays above
